The source of these data is patent US20180362643A1 (Amgen, published 2018).

Assay [1] deals with T1, carboxy terminal PACAP38 peptide (amino acids 28-38) (human, ends and bridges not checked).
T1 construct: also called C-terminal Peptide; C-terminal PACAP peptide
T1 peptide: GKRYKQRVKNK
In words: ELISA screen of B-cell culture supernatant; C-terminal peptide at 500 ng/mL. An excerpt: (§1) Rabbits were immunized with human PACAP38 peptide ([…]; SEQ ID NO: 1). Monoclonal antibodies were generated from the immunized rabbits using the Selected Lymphocyte Antibody Method (SLAM) as described in Babcook et al., Proc. Natl. Acad. Sci. USA, Vol. 93: 7843-7848, 1996. Briefly, B cells were harvested from spleens from the immunized rabbits and expanded in culture. The supernatant from the expanded B-cell cultures was initially screened for binding to an amino terminal PACAP38 peptide ([…]; SEQ ID NO: 5) and a carboxy terminal PACAP38 peptide ([…]; SEQ ID NO: 4) using an ELISA assay. From the initial screen, 2,935 N-terminal and/or C-terminal binders were identified. The affinity of these antibodies for full-length human PACAP38 (SEQ ID NO: 1) was assessed by ELISA assay.
Background: ELISA stands for enzyme-linked immunosorbent assay.

Assay [2] has as its target T2, PACAP38 peptide fragment 27-38 (human, ends and bridges not checked).
T2 construct: also called peptide No. 6
T2 peptide: LGKRYKQRVKNK
The assay can be described thus: SPR (Biacore 3000), solution competition: antibody pre-incubated 2 h with the peptide at 1:200 molar ratio (Ab:peptide), then injected over immobilised full-length PACAP38; readout % inhibition of antibody binding (filing counts >50 % as reactive). As for the experimental part:
(§2) The binding epitopes of anti-PACAP antibodies were evaluated by using the Biacore 3000 biosensor-based instrument (GE Healthcare USA). The Biacore 3000 instrument utilizes surface plasmon resonance (SPR) technology to measure mass increase on the sensor-chip surface. The binding interactions are measured in real-time and recorded as Response Units (RU). Each binding profile (cycle) is stored in a “sensorgram” in real-time. Generally, Biacore technology entails immobilizing a ligand of interest on to a flow-cell of the sensor-chip via a coupling chemistry. The analyte (e.g. putative binding partner to the ligand of interest) is injected across the immobilized ligand allowing it to bind to the ligand-immobilized surface. The magnitude of the response is directly proportional to the mass increase on the immobilized surface due to the binding of the analyte.
(§3) In this experiment, various peptide fragments of PACAP38 were incubated with each of the six antibodies (mAb1, mAb2, mAb3, mAb4, mAb5, and mAb6) described in Example 2 and evaluated for their ability to inhibit binding of the antibodies to full-length PACAP38 immobilized on the sensor-chip. The binding epitopes for each of the antibodies were deduced from the set of peptides that were able to inhibit the binding of each antibody to full-length PACAP38.
(§4) Each of the six anti-PACAP antibodies was incubated at a 1:200 molar ratio (Ab: peptide fragment) with each of the peptide fragments in Table 9 at an ambient temperature for 2 hours prior to analysis. […] A second control containing 6.5 nM antibody was prepared in sample diluent to be used as the untreated control sample for each antibody. Full-length PACAP38, buffer, and each peptide fragment were also tested to evaluate non-specific binding to the immobilized PACAP38 surface.
(SPR reads the build-up and loss of mass on a sensor chip optically.)

Assay [3] addresses T3, PACAP38 peptide fragment 6-20 (human).
T3 construct: also called peptide No. 13
T3 peptide: FTDSYSRYRKQMAVK
In words: SPR (Biacore 3000), solution competition with the peptide for antibody binding to immobilised full-length PACAP38; % inhibition. As for the experimental part:
as §2, §3, §4

Assay [4] deals with T4, PACAP38 peptide fragment 34-38 (human, ends and bridges not checked).
T4 construct: also called peptide No. 17; RVKNK
T4 peptide: RVKNK
Described as above. As for the experimental part:
as §2, §3, §4

For assay [5], the target named is T5, 30-37.
T5 construct: also called PACAP38 peptide fragment 30-37; peptide No. 19
T5 peptide: RYKQRVKN
Described as above. As for the experimental part: as §2, §3, §4

Assay [6] concerns the target T6, amino terminal PACAP38 peptide (amino acids 1-13) (human).
T6 construct: also called N-terminal Peptide; N-terminal PACAP peptide
T6 peptide: HSDGIFTDSYSRY
The assay is described as above. As for the experimental part: as §2, §3, §4

Assay [7] concerns the target T7, vasoactive intestinal peptide (VIP) (human).
T7 construct: also called human VIP
T7 peptide: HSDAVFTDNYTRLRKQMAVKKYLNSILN
The assay can be described thus: ELISA screen of B-cell culture supernatant.

The target in assay [8] is T6, amino terminal PACAP38 peptide (amino …). In words: ELISA screen of B-cell culture supernatant; N-terminal peptide at 500 ng/mL.
Assay [9] has as its target T7, vasoactive intestinal peptide (VIP). In words: ELISA screen of B-cell culture supernatant; VIP at 100 ng/mL.
The target in assay [10] is T8, PACAP38 peptide fragment 26-33 (human).
T8 construct: also called peptide No. 2
T8 peptide: VLGKRYKQ
The assay can be described thus: SPR (Biacore 3000) solution competition against immobilised PACAP38.

The target of assay [11] is T9, 31-38 (ends and bridges not checked).
T9 construct: also called PACAP38 peptide fragment 31-38; peptide No. 5
T9 peptide: YKQRVKNK
The assay can be described thus: SPR (Biacore 3000), solution competition: antibody pre-incubated 2 h with the peptide at 1:200 molar ratio (Ab:peptide), then injected over immobilised full-length PACAP38; readout % inhibition of antibody binding (filing counts >50 % as reactive). As for the experimental part: as §2, §3, §4

For assay [12], the target named is T10, PACAP38 peptide fragment 6-36 (human).
T10 construct: also called peptide No. 12
T10 peptide: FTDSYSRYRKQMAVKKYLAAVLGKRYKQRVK
In words: SPR (Biacore 3000) solution competition: antibody pre-incubated 1:200 with the fragment, then injected over immobilised PACAP38. As for the experimental part: as §3, §4

For assay [13], the target named is T3, PACAP38 peptide fragment 6-20. The description is as above. As for the experimental part:
as §3, §4

For assay [14], the target named is T11, PACAP38 peptide fragment 4-27 (human).
T11 construct: also called peptide No. 9
T11 peptide: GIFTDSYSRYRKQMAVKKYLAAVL
The assay is described as above. As for the experimental part:
as §3, §4

Assay [15] concerns the target T12, PACAP38 peptide fragment 6-37 (human).
T12 construct: also called peptide No. 3
T12 peptide: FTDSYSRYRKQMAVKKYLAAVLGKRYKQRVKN
The description is as above. As for the experimental part: as §3, §4

For assay [16], the target named is T13, PACAP38 peptide fragment 6-35 (human).
T13 construct: also called peptide No. 4
T13 peptide: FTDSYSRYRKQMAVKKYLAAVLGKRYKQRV
The assay is described as above. As for the experimental part: as §3, §4

The target in assay [17] is T14, PACAP38 peptide fragment 6-38 (human, not fully specified).
T14 construct: also called peptide No. 11
T14 peptide: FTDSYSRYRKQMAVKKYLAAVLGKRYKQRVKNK
The description is as above. As for the experimental part: as §3, §4

The target in assay [18] is T2, PACAP38 peptide fragment 27-38. In words: SPR (Biacore 3000) solution competition against immobilised PACAP38.
For assay [19], the target named is T15, full-length human PACAP38 (human, not fully specified).
T15 peptide: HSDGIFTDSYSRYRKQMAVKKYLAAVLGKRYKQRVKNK
In words: cell-based or functional assay.

Assay [20] concerns the target T6, amino terminal PACAP38 peptide (amino …). In words: ELISA screen of B-cell culture supernatant; N-terminal peptide at 500 ng/mL; ELISA screen of B-cell culture supernatant (Example 1); N-terminal peptide 500 ng/mL; optical density.
Excerpt: as §1

Assay [21] concerns the target T15, full-length human PACAP38. The assay can be described thus: ELISA screen of B-cell culture supernatant; full-length PACAP38 at 10 ng/mL.
Excerpt: as §1

Assay [22] addresses T9, 31-38. In words: SPR (Biacore 3000), solution competition with the peptide for antibody binding to immobilised full-length PACAP38; % inhibition. As for the experimental part: as §2, §3, §4
The target in assay [23] is T16, PACAP38 peptide fragment 14-38 (human, not fully specified).
T16 construct: also called peptide No. 7
T16 peptide: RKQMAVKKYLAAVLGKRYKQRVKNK
The assay is described as above. As for the experimental part:
as §2, §3, §4

The target of assay [24] is T17, PACAP38 peptide fragment 11-27 (human).
T17 construct: also called peptide No. 8
T17 peptide: SRYRKQMAVKKYLAAVL
Described as above. As for the experimental part:
as §2, §3, §4

For assay [25], the target named is T1, carboxy terminal PACAP38 peptide (amino …). In words: ELISA screen of B-cell culture supernatant.
For assay [26], the target named is T18, human PACAP27 (human, not fully specified).
T18 peptide: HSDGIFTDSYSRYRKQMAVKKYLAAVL
In words: cell-based or functional assay.

Positions count from the first letter of the chain named. Ends that are not written are not given here.

B1: mAb3 (antibody, V domains shown)
VH: QSLEESGGGLVQPGASLTLTCTASGFSFSSNYYMCWVRQAPGKGLEWIACIFTGSSGSTYYASWAKGRFTISKTSSTTVTLHVTSLTAADTATYFCARDRALSVVGYFYAAYYFDFWGPGTLVTVSS
VL: DVVMTQTPSPVSAAVGGTVTINCRASEDIESFLAWYQQKPGQPPKLLMSRTSTLESGVPSRFKGSGSGTEFTLTISDLECADAATYYCQCTDGSSSSSSYGWDAFGGGTEVVVKG
notes: Rabbit monoclonal antibody (SLAM), recombinant; also called monoclonal anti-PACAP antibody 3; 3 (c89)
In the case of B1, the “Optical Density” value turned out to be 3.59 OD in assay [1], 0.06 OD in [8] and 0.07 OD in assay [9]. The binding result in [2] is “binds”; in assay [3] it was “no binding (tested: 1:200 molar ratio (Ab:peptide))”; in assay [4] it was “no binding (tested: 1:200 molar ratio (Ab:peptide))”; in [5] it was “no binding (tested: 1:200 molar ratio (Ab:peptide))”; in assay [6], “no binding (tested: 1:200 molar ratio (Ab:peptide))”; in [7], “no binding (tested: 100 ng/mL)”.

B2: mAb1 (antibody, V domains shown)
VH: QSLEESGGDLVKPGASLTLTCKASGIAFSNDYMCWVRQAPGKGLEWIACIFTGSSGSTYYASWAKGRFTISKTSSTTVTLQMTSLTAADTATYFCARDRAISVLGYFYAAYFFDFWGPGTLVTVSS
VL: B1 VL with M48I, P59S, T72I
notes: Rabbit monoclonal antibody (SLAM), cloned, recombinantly expressed and purified; also called monoclonal anti-PACAP antibody 1; 1 (c20)
Turning to B2, the binding result in [10] is recorded as “no binding (tested: 1:200 molar ratio (Ab: peptide fragment))”; in assay [11] it was “binds”; in assay [2], “binds”; in assay [3] it was “no binding (tested: 1:200 molar ratio (Ab:peptide))”; in [6], “no binding (tested: 1:200 molar ratio (Ab:peptide))”; in assay [7] it was “no binding (tested: 100 ng/mL)”. Further, the “Optical Density” value in assay [1] was determined as 5.33 OD; in assay [8] it was 0.05 OD; in [9] it was 0.08 OD.

B3: mAb4 (antibody, V domains shown)
VH: QSVEESGGRLVTPGTPLTLTCTASGIDLSSYAMIWVRQAPGEGLEYIGFIDAGDGNTYYASWAKGRFTISKTSTTVDLKITSPTTEDTATYFCARGDPGWSNGFALWGQGTLVTVSS
VL: DIVMTQTPASVSGAVGGTVTIKCQASQSIRNELSWYQQKPGQPPKLLIYKASTLASGVPSRFSGSGFGTEFTLTISGVQCDDAATYYCQNNYGTRRNNYVFPFGGGTEVVVKG
notes: Rabbit monoclonal antibody (SLAM), recombinant; also called monoclonal anti-PACAP antibody 4; 4 (c47)
Take B3: the binding result in [12], in assay [13], in assay [14], in assay [15], in assay [16] and in assay [17] was “binds” throughout. Further, the binding result in assay [18] is reported as “no binding (tested: 1:200 molar ratio (Ab: peptide fragment))”; in [22], “no binding (tested: 1:200 molar ratio (Ab:peptide))”; in assay [23], “no binding (tested: 1:200 molar ratio (Ab:peptide))”; in assay [4], “no binding (tested: 1:200 molar ratio (Ab:peptide))”; in [24], “no binding (tested: 1:200 molar ratio (Ab:peptide))”; in [5] it was “no binding (tested: 1:200 molar ratio (Ab:peptide))”. In addition, the binding result in [25] was “no binding (tested: 500 ng/mL)”. Besides, the “Optical Density” value in assay [1] was determined as 0.05 OD; in assay [20] it was 3.68 OD; in assay [21], 2.09 OD; in [9] it was 0.24 OD. The “IC50: inhibition of PACAP38 (10 pM)-induced activation of human PAC1 receptor, cAMP assay in SH-SY5Y (CRL-2266) cells, POC versus antibody concentration” value in assay [19] turned out to be 12 nM. Besides, in assay [26], the “IC50: inhibition of PACAP27 (10 pM)-induced activation of human PAC1 receptor, cAMP assay in SH-SY5Y (CRL-2266) cells, POC versus antibody concentration” value came to 3.7 nM.
